Experimental data taken from US20160200799A1.
Numbering of substitutions follows the chain as printed.

B1: Group 57 representative clone F083-103, Fab-PP-type antibody (Fab, V domains shown)
VH: QVQLQQSGADVKKAGSSVKVSCKASGRTFGNYAISWVRQAPGQGLEWMGGITPIFGAANYAQKFQGRVTISADLSTRMVYMDLSSLRSDDTAFYYCAGHPTYHYGSAMDYWGQGTLVTVSS
VL: QSVLTQPPSVSAAPGQKVTITCSGSSSNIGNNYVSWYQQLPGTAPKLLISEGSNRPSGIPDRFSGSKSGTSATLGITGLQTGDEATYYCATWDDSLSVVLFGGGTRLTVLS
B2: Group 59 representative clone F083-351, Fab-PP-type antibody (Fab, V domains shown)
VH: B1 VH with Q5V, T101M
VL: QSVLTQPPSASGTPGQRVSISCFGSRSNVGSSSVNWYQQLPGRAPKLLIQRNDQRPSGVPDRFSGSKSGTSASLAISGLQSDDESTYYCAAWDDSVKSVVFGGGTQLTVLG
B3: Group 80 representative clone F083-373, Fab-PP-type antibody (Fab, V domains shown)
VH: B1 VH with Q5V, A14P, K19R, R77T, H103Y, A107P
VL: EIVLTQSPSSLSASVGDRVTITCRASQSIATYLNWYQQKPGKAPNLLIYAASNLQSGVPSRFSGSGSGTDFTLTISSLQPEDFATYVCLQSYSATLTFGGGTKVEIK
B4: Group 65 representative clone F083-366, Fab-PP-type antibody (Fab, V domains shown)
VH: QVQLVQSGSEVKKPGSSVKVSCKASRGIFSSYAISWVRQAPGQGLEWMGAVIPMFGTLKYAENFQGRITISADKSMSAAYMELSSLRSEDTAVYYCARNYYGSGTYFNDAFDIWGQGTMVTVSS
VL: QSVLTQPPSGSGAPGQRVTISCTGGNSNIGAGYDVNGYQQLPGKAPKLLIYGNNNRPSGVPDRFSGSKSGTSASLAITGLQVEDEAHYYCQSYDNGLSGSVFGGGTQLTVLG
B5: Group 62 representative clone F083-349, Fab-PP-type antibody (Fab, V domains shown)
VH: QVQLVQSGAEVRKPGSSVKVSCKASGVIFIKFAISWVRQAPGQGLEWMGGIIPMFGTTNYAQKFQGRVTITADGSTNTVYMELSSLTSEDTAVYYCAKEEGYYYGSGPLDSWGQGTLVTVSS
VL: DIVMTQSPDFLSVSLGERVTINCKSSQTVLNRSNNKNYLAWYQKKPGQPPRLLLYWSSTRESGVPDRFSGSGSETDFALTITNLQAEDLAVYFCQQFYDMPVTFGGGTKLEIK
B6: Group 38 representative clone F082-338, Fab-PP-type antibody (Fab, V domains shown)
VH: QVQLQESGAEVKKPGSSVKVSCKASGGPFRSHAISWVRQAAGQGLEWMGGITAVFGTANYAQKFQGRVTITADESTNIVSMELSSLRSEDTAIYYCARSLGYHTQYNGMDVWGQGTTVTVSS
VL: DVVMTQSPSSVSASVGDRVTITCRASQGISSWLAWYQQKPGKAPKLLIYAASSLQSGVPSRFSGSGSGTDFTLTISSLQPEDFATYYCQQANSFPITFGQGTRLEIK
B7: Group 64 representative clone F083-301, Fab-PP-type antibody (Fab, V domains shown)
VH: QVQLVQSGAEVKKPGSSVKVSCKASGGIFNSNAISWVRQAPGQGLEWMGGIIGIFGTANYAQKFQGRVTIAADQSTNTVFMELSSLTSEDTAVYFCARSRGYSFGYGTDYFDYWGQGTLVTVSS
VL: DIVMTQSPSTLSASVGDRVTITCRASQSISSWLAWYQQAPGKAPKLLIYEASKLQSGVPSRFSATGSGTEFTLTIASLQPEDFAIYYCQHYEAYPFSFGPGTKLDVK
B8: Group 58 representative clone F083-307, Fab-PP-type antibody (Fab, V domains shown)
VH: QVQLQQSGADVKKPGSSVKVSCKASGGTFGNYAISWVRQAPGQGLEWMGGITPIFGPANYAQRFQGRVTISADISTRTAYMELSSLRSEDTAIYYCARHPTYYFGSAMEYWGQGTLVTVSS
VL: SYELTQPPSVSVAPGQTATITCGGDRIGTGPVHWYQQRPGRAPVLIIYGSTHRPSGIPERFSGSKSVNTATLSISGVGVGDEADYYCQVWDTSTAQPIVFGGGTKLTVLS
B9: Group 63 representative clone F083-336, Fab-PP-type antibody (Fab, V domains shown)
VH: QVQLQQSGAEVKQPGSSVKVSCKASGGIFRSNAISWVRQAPGQGLEWMGGIVALFGTANYAQKFQGRVTITADESTSTVYMELSSLRSEDTARYYCARNSGYHISGFYLDYWGQGTLVTVSS
VL: EIVLTQSPSSLSASVGDRVTITCRASQGISNYLAWYQQRPGKVPKLLIYTASTLLSGVPSRFSGGGSGTDYTLTISSLQPEDVATYYCQEYKSVPLTFGPGTKVEIK
B10: Group 44 representative clone F081-008, Fab-PP-type antibody (Fab, V domains shown)
VH: QVQLVQSGAEVKKPGSSVKVSCKASGGTFSSFSTYTISWVRQAPGQGLEWMGRSIPLLGITNYAQKFQGRVTITADISTSTAYMELSSLRSEDTAVYYCARYQSSDYYNSEYFQHWGQGTLVTVSS
VL: EIVLTQSPGTLSLSLGERVTLSCRASQNVGTNYLAWYQQKPGQAPRLLIYGASSRATGVPDRFSGSGSGTDFTLTISRLAPEDFAVYYCQQYSSSPLTFGGGTKLEIK
B11: Group 51 representative clone F083-302, Fab-PP-type antibody (Fab, V domains shown)
VH: QVQLVQSGAEVKKPGSSVKVSCEASGATFSSNAFSWVRQAPGQGPEWMGGIITMFRKAEYAQKFQGRVTITAGELGSTAYMEVRSLTFEDTAVYYCARHSGYHLIGYFDSWGQGTLVTVSS
VL: QSVLTQPPSVSAAPGQKVTISCSGTTSNIGNNYVSWYQQLPGAAPKLLIYDNNKRPSGIPDRFSGSKSDTSATLGITGLQTGDEADYYCGTWVSSLSVWVFGGGTKLTVLG
B12: Group 43 representative clone F081-007, Fab-PP-type antibody (Fab, V domains shown)
VH: QVQLQQSGAEVKKPGSSVKVSCKASGGIFRKNAISWVRQAPGQGLEWMGGISAIFGTANYAQKFQGRVTITADESSNTVYMDLSRLRSEDTAIYYCASHPTYHFDKSGYRFDSWGQGTLVTVSS
VL: B11 VL with T25S, T26S, A43T, D69G, V93D, V98A, W99G

Key:
Experiment in all cases: cell-based or functional assay
[1] = target: Influenza virus A/Panama/2007/1999 (H3N2) (Influenza A virus A/Panama/2007/1999 (H3N2))
[2] = target: Influenza virus A/Indonesia/5/2005/PR8-IBCDC-RG2 (H5N1) (Influenza A virus A/Indonesia/5/2005/PR8-IBCDC-RG2 (H5N1))
[3] = target: Influenza virus A/Suita/1/2009pdm (H1N1 2009 pandemic) (Influenza A virus A/Suita/1/2009pdm (H1N1pdm))
[4] = target: Influenza virus A/California/7/2009pdm (H1N1pdm) (Influenza A virus A/California/7/2009pdm (H1N1pdm))
[5] = target: Influenza virus A/Brisbane/59/2007 (H1N1) (Influenza A virus A/Brisbane/59/2007 (H1N1))

Binder	Neutralizing activity (%) at 100 µg/ml [1] [%]	Neutralizing activity (%) at 250 µg/ml [1] [%]	Neutralizing activity (%) at 100 µg/ml [2] [%]	Neutralizing activity (%) at 250 µg/ml [2] [%]	Neutralizing activity (%) at 100 µg/ml [3] [%]	Neutralizing activity (%) at 250 µg/ml [3] [%]	HI activity [4] [µg/mL]	HI activity [5] [µg/mL]	Neutralizing activity (%) at 100 µg/ml [5] [%]	Neutralizing activity (%) at 250 µg/ml [5] [%]
B1	11	13.7	30	61.2	60.2	83.8	> 160	> 160	84.2	92.1
B2	-6.8	-6.6	-2.7	5.4	88.5	85.6	> 160	> 160	100	100
B3	-6.9	-21.2	-3.3	15.4	1.9	7.7	> 160	> 160	70.4	74.3
B4	-13	-6.8	-0.8	-3.9	13.5	19.2	> 160	> 160	96.1	98
B5	13.7	-8.9	40.2	83.9	97.1	91.3	> 160	> 160	92.1	92.1
B6	-2.7	-0.7	67.1	85.3	100	97.7	> 160	> 160	100	100
B7	-2.7	7.5	40.6	47.1	83.6	81.3	> 160	> 160	86.2	92.1
B8	-6.8	11.6	28.8	31.8	76.6	54.8	> 160	> 160	100	100
B9	-11	-8.9	98.8	100	100	100	> 160	> 160	100	100
B10	3.4	15.8	48.8	56.5	95.3	97.7	> 160	> 160	100	100
B11	3.4	-11	72.9	85.9	100	100	> 160	> 160	98	98
B12	11.6	13.7	97.6	98.8	100	100	> 160	> 160	100	100
